Test system: MS2 coat protein
Experiment: apparent KD of MS2 coat protein; designed switch direction (-1 OFF switch, 1 ON switch): -1; higher = weaker reporter binding
Method in brief: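 For each design, the apparent KD is the median over clusters of curves fitted to normalised cluster fluorescence. Clusters held RNA switches with common flanks, transcribed on Illumina chips by stalled E. coli RNA polymerase. These were titrated with SNAP-549-labelled MS2 coat protein, doubling from 0.7 or 1.5 nM to 3 µM, without input, with 200 uM small-molecule ligand, or with an oligonucleotide input.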

[1] = input ligand: microRNA oligo, concentration not stated
[2] = Eterna round: R95, input ligand: FMN 200 uM
[3] = Eterna round: R95, input ligand: microRNA oligo, concentration not stated
[4] = Eterna round: R95, input ligand: none

| Sequence | apparent KD of MS2 coat protein (input ligand: FMN 200 uM) | apparent KD of MS2 coat protein [1] | apparent KD of MS2 coat protein (input ligand: none) | apparent KD of MS2 coat protein [2] | apparent KD of MS2 coat protein [3] | apparent KD of MS2 coat protein [4] |
| --- | --- | --- | --- | --- | --- | --- |
| GGAUAAAAGACAGGAUAUACGCACCACUAACGAGUAGAAGGGUCACAUGAGGAUCACCCAUGUGAGUUCUCAAUAAGAAACACG [Prohibition 67 - Jieux - Exclusion NG 1] (Eterna round: R96, puzzle: Exclusion NG 1) | 14.2 nM | 16.9 nM | 17.3 nM | – | – | – |
| GCACGGAGUGUAGGAUAUCUGUGCGAUUAGCUCAGAGAAGGACACAUGAGGAUCACCCAUGUGUAACUCAACAAUAAUCCGUGC [Eli exng1 - 073] (Eterna round: R96, puzzle: Exclusion NG 1) | 18.3 nM | 8.53 nM | 11.9 nM | – | – | – |
| AGAGAAUAGACAGGAUAUGAGAAUAGAUAGAGCUCAGAAGGGUCACAUGAGGAUCACCCAUGUGAAGUCUUGAGGCUGCGUGGA [Prohibition 19 - Jieux - Exclusion NG 1] (Eterna round: R96, puzzle: Exclusion NG 1) | 14.6 nM | 10.9 nM | 18.3 nM | – | – | – |
| GCCGAUUAAGUGAGGAUAUACCUAUGGAUACAUAGGUAGAAGGCACAUGAGGAUCACCCAUGUAUCCUAUCGGC [Eli bmx4 4.27] (Eterna round: R97, puzzle: Brourd's mod of Exclusion 4) | 517 nM | – | 59.8 nM | – | – | – |
| UCUGUUAUGCGAGGAUAUCGACCAUUCCUCUUAACAUGAGGAUCACCCAUGUGCUAAUCCUUCAACGAGAAGGCGCUCUUACUC [JR_ExcNG2_Sub069] (Eterna round: R96, puzzle: Exclusion NG 2) | 346 nM | 114 nM | 268 nM | – | – | – |
| ACAUGUCAUUGAGGAUAUUGCACACAUGAGGAUCACCCAUGUAAACGGAUGCUCUUACGUGGGUUCGAGAAGGCGAUGUACAUU [Ex NG2 #94] (Eterna round: R96, puzzle: Exclusion NG 2) | 156 nM | 186 nM | 252 nM | – | – | – |
| CCGCUAAGAGCAGGAUAUGAGUAACAUGAGGAUCACCCAUGUGGACCAUGAAACAGUCCACGCAGUCAGAAGGGUUACGUGGCA [Eternabot solution 33] (Eterna round: R96, puzzle: Exclusion NG 2) | 38.8 nM | 23.1 nM | 34.3 nM | – | – | – |
| UUGUUAUAUGUAGGAUAUGCGUGUUAUUAUUAGGCAGAAGGACAUGAGGAUCACCCAUGUAUGUUGUUGUUAUAUAUUAUAUAU [Title] (Eterna round: R96, puzzle: Exclusion NG 1) | 22.9 nM | 17.8 nM | 25.6 nM | – | – | – |
| CUUCACCCACCAGAGCACACCCACAUACCUGCUCAGGUGACAUGAGGAUCACCCAUGUUUUUUGCCCGUCUUAUCUU [Tilevere] (puzzle: Sensor v3, turn-off variant 2) | – | – | – | 31.6 nM | 144 nM | 33.9 nM |
| AAUUAACAAGCAAGAUCCUACAUGAGGAUCACCCAUGUGCUCGUCUUAUAAAGUACUAUCACGAAAGUGAUAGUACA [Mat - Sensor v3 - turn-off var 1 - Eli Mod - D57] (puzzle: Sensor v3, turn-off variant 1) | – | – | – | 217 nM | 357 nM | 197 nM |
| CCUUACCGAGGAUAUACAUGAGGAUCACCCAUGUGAUCCUAAGGCUGAUCAAGCCUAUGUAGAAGGCGCAAAUC [salish99_ex3_r4_004] (Eterna round: R97, puzzle: Exclusion 3) | 160 nM | – | 130 nM | – | – | – |
| CCGGCUUAGGAGGAUAUAGGAGUCGAAAGACACCUAGAAGGCCUAACAUGAGGAUCACCCAUGUGUCCUACCGG [Mod of Eli 6 - Jieux - Exclusion 6] (Eterna round: R97, puzzle: Exclusion 6) | 78.4 nM | – | 24 nM | – | – | – |
| GUGCCGCGAGGAUAUACAGACGGGUCCAUAACGUGUCUCGGACUUGAGGAUCACCCAAGUAGAAGGCGUUUCAG [salish99_ex2_r4_623] (Eterna round: R97, puzzle: Exclusion 2) | 19.9 nM | – | 20.8 nM | – | – | – |
| CUGAGUUUAGGAUAUACAUGAGGAUCACCCAUGUAAAGUAGCUUGCGUACAGGCAGAUGUAGAAGGAAAUUCGG [Mod of JL 7 - Jieux - Exclusion 3] (Eterna round: R97, puzzle: Exclusion 3) | 31.5 nM | – | 41.8 nM | – | – | – |
| GGAGUGUAAGGAUAUAAGACAAGGGCUAUCGGAGCCCAAAUUUAGAAGGUACAUGAGGAUCACCCAUGUGAUGA [Eternabot (L1) Solution 5] (Eterna round: R97, puzzle: Exclusion 4) | 124 nM | – | 27.2 nM | – | – | – |
| UGCAUGCUAGGAUAUACGAAACAUUAGGGUUCGUCGUAUGAACAUGAGGAUCACCCAUGUAGAAGGAGCGUGCU [Mod6 of JL-ex2-2.15 mat747 mod] (puzzle: Exclusion 2) | – | – | – | – | 16.8 nM | – |
| CUCCGGCGUGUAGGAUAUGGUUCCGUUUCGGUUCCAGAAGGACAUGAGGAUCACCCAUGUACAUGUCGUCGGUCGUCACCGGGC [salish99_ExNG1_r04_215] (Eterna round: R96, puzzle: Exclusion NG 1) | 120 nM | 21.7 nM | 35.4 nM | – | – | – |
| AAGUACUACAAGCUUAGGGACAUGAGGAUCACCCAUGUUCGUCUUAUUGAUCUAGGUACGCUGACGUACCUAGAUCU [Mat - Sensor v3 - turn-off var 1 - JL Mod - D9] (puzzle: Sensor v3, turn-off variant 1) | – | – | – | 15.2 nM | 58.6 nM | 13.2 nM |
| CCCGUCGAUGUAGGAUAUGCCCGGGUCUCCCGGGCAGAAGGACAUGAGGAUCACCCAUGUUCAUGAGGAUCACCCAUGAAUGGG [Double but mutated MS2] (Eterna round: R96, puzzle: Exclusion NG 1) | 12.1 nM | 12.1 nM | 16.6 nM | – | – | – |
| GGAAUGUAAGGAUAUCCGAAAGGAAGGAGAGGGAGAGGGAAGGAGAAGGUACAUGAGGAUCACCCAUGUAAGGG [AK-MS2ROC-r4-exclusion4-9] (Eterna round: R97, puzzle: Exclusion 4) | 88.5 nM | – | 69.2 nM | – | – | – |
| UUAGCUUCAGGAUAUACAGUGGGCUGGGAUCUAAAGAUCAAACAUGAGGAUCACCCAUGUAGAAGGGAACGGAA [Eternabot (L2) Solution 32] (Eterna round: R97, puzzle: Exclusion 2) | 380 nM | – | 145 nM | – | – | – |
| UUUUACAUAGGAUAUAGUUGCUUUUACAUGAGGAUCACCCAUGUCUCUCCUCUCUCUCUUCUAGAAGGAUGUUUCU [JR_E5_Sub011] (Eterna round: R96, puzzle: Exclusion 5) | 55.3 nM | 35.7 nM | 47 nM | – | – | – |
| AAGUAUAGAGGAUAUAGUAGGUACAACAUGAGGAUCACCCAUGUUCUUCAUAACGUAUUUCUAGAAGGCUGAUAAA [EX-5 Malc#27] (Eterna round: R96, puzzle: Exclusion 5) | 356 nM | 135 nM | 126 nM | – | – | – |
